Where “and” joins values, the source holds several entries; their conditions need not be identical. Equal values may be shown once.
Key:
[1] = biological target: T1, TssA1 fused to the adenylate cyclase T25 or T18 subunit (P. aeruginosa, UniProt Q9I750 1-344); assay: two-hybrid; bacterial two-hybrid (BTH), T25 and T18 adenylate cyclase fusions in E. coli DHM1; β-galactosidase activity in Miller units and X-gal LB agar plates; conditions: partners not purified
T1 sequence: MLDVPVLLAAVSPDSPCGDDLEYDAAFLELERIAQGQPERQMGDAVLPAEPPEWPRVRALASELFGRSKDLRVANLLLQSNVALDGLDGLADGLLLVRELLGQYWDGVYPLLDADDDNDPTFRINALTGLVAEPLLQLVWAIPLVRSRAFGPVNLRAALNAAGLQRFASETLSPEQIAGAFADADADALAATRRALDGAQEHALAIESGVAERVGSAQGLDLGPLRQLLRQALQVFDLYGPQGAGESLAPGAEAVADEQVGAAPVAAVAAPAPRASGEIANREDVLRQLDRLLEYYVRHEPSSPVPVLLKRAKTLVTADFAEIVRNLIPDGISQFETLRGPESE

[2] = biological target: the molecule itself; assay: AUC; sedimentation velocity of His6-TssA1 at 0.8, 0.56 and 0.32 mg/ml, 20,000 and 30,000 rpm, 20 °C, 25 mM Tris-HCl pH 7.5, 200 mM NaCl; c(s) by SEDFIT

B1: TssK1 fused to the adenylate cyclase T25 or T18 subunit (natural protein)
chain: MSWNNRVVWSEGMFLRPQHFQQHDRYLETLVDGRCRSLLAGGWGFSELKLDDALLTQGKLAIVSARGVLPDGTPFNIPADDPAPAPLNVEESLRDGIVYLGLPLKRVGTRDTVEEGEALGGARYVSQVQEVRDDNAAFESRAPVALGSQAFRLLTERDGLGEYAAVGVARVREKRADQALSLDEDYLPPVLDIAAAPPLASFAKELLGLLHQRGEALAGRVVASSAGGASEIADFLLLQLVNRAEALTGHLSRVRPLHPQELYRELVALAGEFCTFTASQRRPEEYPVYNHDDLAASFAPVMLALRQALATVIDAKAIAIPIVEKAYGVHVAMLSDRSLIDNASFVLVVRADVPGESLRGHFPQQAKVGSVEHIRDLVNLQLPGIGLLPMPVAPRQIPYHAGSTYFELDRGSAHWKQLTHSGGFAFHIAGQFPGLNLAFWAIRG
**Q.** How did the “fold above control (β‐galactosidase activity)” value [1] turn out when B1 was run?
**A.** Its value is roughly 20 fold.

B2: His6-TssA1 (natural protein)
chain: MLDVPVLLAAVSPDSPCGDDLEYDAAFLELERIAQGQPERQMGDAVLPAEPPEWPRVRALASELFGRSKDLRVANLLLQSNVALDGLDGLADGLLLVRELLGQYWDGVYPLLDADDDNDPTFRINALTGLVAEPLLQLVWAIPLVRSRAFGPVNLRAALNAAGLQRFASETLSPEQIAGAFADADADALAATRRALDGAQEHALAIESGVAERVGSAQGLDLGPLRQLLRQALQVFDLYGPQGAGESLAPGAEAVADEQVGAAPVAAVAAPAPRASGEIANREDVLRQLDRLLEYYVRHEPSSPVPVLLKRAKTLVTADFAEIVRNLIPDGISQFETLRGPESE
**Q.** B2 was tested. Which “stoichiometry N” value [2] did it give?
**A.** Its value is 12 and 24.
